In paper PMC10866537:

Tests used:
[1] = molecular target: 4-1BBL (Homo sapiens) (UniProt P41273); settings: cited from earlier work
[2] = molecular target: mouse 4-1BB–Fc protein (mouse) (UniProt P20334); assay: SPR; BIAcore X100; siglec-4–Fc or m4-1BB–Fc amine-coupled to CM5; h4-1BB–HIS or m-siglec-4–HIS flowed at 18 to 3000 nM in HBS-EP (10 mM Hepes pH 7.4, 150 mM NaCl, 3 mM EDTA, 0.05% P20); fitted with a 1:2 binding model
Sequence of mouse 4-1BB–Fc protein (mouse) (P20334 24-187): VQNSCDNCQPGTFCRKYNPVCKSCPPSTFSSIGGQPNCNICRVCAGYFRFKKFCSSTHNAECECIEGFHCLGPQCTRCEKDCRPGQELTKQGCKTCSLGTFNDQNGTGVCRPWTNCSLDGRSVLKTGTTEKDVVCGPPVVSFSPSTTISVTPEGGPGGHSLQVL

Sequence of 4-1BB (Q07011 24-255): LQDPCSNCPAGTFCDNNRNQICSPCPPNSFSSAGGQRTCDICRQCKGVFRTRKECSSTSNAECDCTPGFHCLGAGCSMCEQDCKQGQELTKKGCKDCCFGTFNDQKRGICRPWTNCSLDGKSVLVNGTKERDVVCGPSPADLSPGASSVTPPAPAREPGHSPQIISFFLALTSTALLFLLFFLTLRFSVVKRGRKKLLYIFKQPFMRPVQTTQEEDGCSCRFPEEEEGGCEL
Sequence of 4-1BBL (Homo sapiens) (P41273 whole entry): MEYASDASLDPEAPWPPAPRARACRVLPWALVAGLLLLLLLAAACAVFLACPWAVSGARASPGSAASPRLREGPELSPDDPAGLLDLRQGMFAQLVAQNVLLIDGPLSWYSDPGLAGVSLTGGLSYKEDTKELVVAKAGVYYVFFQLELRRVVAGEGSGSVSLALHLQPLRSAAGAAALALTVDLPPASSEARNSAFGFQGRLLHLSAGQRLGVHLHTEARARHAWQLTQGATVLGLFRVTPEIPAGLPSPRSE

Kd [2] | Substance | Kd [1]
 | 4-1BB (from UniProt Q07011) | 85.6 nM
860 nM | mouse siglec-4–HIS protein (domain or fragment) | 
